Source: the nanobody polyreactivity screen of Harvey et al. (2022)

Assay: yeast display, Sf9 membrane polyspecificity reagent, FACS + sequencing; frameworks hold sequencing errors
Outline: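 Sorting gates, low and high (top ~1%), were placed on anti-HA fluorescence to track expression and on streptavidin fluorescence to track reagent binding. A clone's polyreactivity label is taken from the gate it came out of. The reagent was 10% biotinylated, detergent-solubilized Sf9 membrane, applied for 1 hour at 4 °C to galactose-induced yeast display cells.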

Row | Sequence | polyreactivity (PSR sort gate)
1 | QVQLVESGGGLVQAGGSLRLSCAASGRIFSRYVMGWYRQAPGKEREFFASITWSGSSTYYADSVKGRFTISRDNAKNTVYLQMNSLKPEDTAVYYCAALGLLSPSPCGTHISEYDSWGQGTQVTVSS | low polyreactivity
2 | QVQLVESGGGLVQAGGSLRLSCAASGRIFSSNAMGWYRQAPGKEREFVAAISWRTGSTYYADSVKGRFTISRDNAKNTVYLQMNSLKPEDTAVYYCNKRTGSYGYPYYYWGQGTQVTVSS | high polyreactivity
3 | QVQLVESGGGLVQAGGSLRLSCAASGRIFSSYAMGWYRQAPGKERELVAAISKSGGNTYYADSVKGRFTISRDNAKNTVYLQMNSLKPEDTAVYYCDAVAPYTLYFWLYYWGQGTHVTVSS | high polyreactivity
4 | QVQLVESGGGLVQAGGSLRLSCAASGRIFSSYAMGWYRQAPGKERELVAAISRGGGRTYYADSVKGRFTISRDNAKNTVYLQMNSLKPEDTAVYYCATVVRSAAYAFDYWGQGTQVTVSS | high polyreactivity
5 | QVQLVESGGGLVQAGGSLRLSCAASGRIFSSYAMGWYRQAPGKERELVAAISSRGGSTYYADSVKGRFTISRDNAKNTVYLQMNSLKPEDTAVYYCARVKYSGVVYKYDYWGQGTQVTVSS | high polyreactivity
6 | QVQLVESGGGLVQAGGSLRLSCAASGRIFSSYDMGWYRQAPGKEPELVAAISRSGARTYYADSVKGRFTISRDNAKNTVYLQMNSLKPEDTAVYYCAAEFRSWGGYRYRFNYWGQGTQVTVSS | high polyreactivity
7 | QVQLVESGGGLVQAGGSLRLSCAASGRIFSTYAMGWYRQAPGKERELVAAISWRGSSTYYADSVKGRFTISRDNAKNTVYLQMNSLKPEDTAVYYCNADKANRYDWGQGTQVTVSS | high polyreactivity
8 | QVQLVESGGGLVQAGGSLRLSCAASGRIFSTYAMGWYRQAPGKERELVAAISYSGTTTYYADSVKGRFTISRDNAKNTVYLQLNRLKPEDTAVYYCAAYRYSSWAYGRDYYWGQGTQVTVSS | high polyreactivity
9 | QVQLVESGGGLVQAGGSLRLSCAASGRIFSVNAMGWYRQAPGKERELVAAITTRGGTTYYADSVKGRFTISRDNAKNTVSLQMNSLKPEDTAVYYCAAESSWYVYWEWAHDYWGQGTQVTVSS | low polyreactivity
10 | QVQLVESGGGLVQAGGSLRLSCAASGRIFSVNAMGWYRQAPGKERELVASISWSGGSTYYADSVKGRFTISRDNAKNTVYLQMNSLKPEDTAVYYCARGYWVYYPDGDYWGQGTQVTVSS | low polyreactivity
11 | QVQLVESGGGLVQAGGSLRLSCAASGRIFSVNAMGWYRQAPGNERELVAAMTSGDSTNYADSVKGRFTISRDNAKNTVYLQMNSLKPEDNAVYYCNARGSQELWRRKWYHTEYDYWGQGTQVTVSS | low polyreactivity
12 | QVQLVESGGGLVQAGGSLRLSCAASGRIFSVYAMGWYRPAPGKERELVAAITRVGSTNYADSVKGRFTISRDNAKNTVYLQMNSLKPEDTAVYYCAASKYGSLSGYWGQGTQVTVSS | high polyreactivity
13 | QVQLVESGGGLVQAGGSLRLSCAASGRIFSVYVMGWYRPAPGKERELVAAISGRDGTTYYADSVKGRFTISRDNAKNTVYLQMNSLKPEDTAVYYCAAEDIDFTPMDYWGQGTQVTVSS | high polyreactivity
14 | QVQLVESGGGLVQAGGSLRLSCAASGRIFSVYVMGWYRQAPGKERELVAAITRSGGRTYYADSVKGRFTISRDNAKNTVYLQMNSLKPDDTAVYYCAARVKGYAYNYWGQGTQVTVSS | high polyreactivity
15 | QVQLVESGGGLVQAGGSLRLSCAASGRIFSWYTMGRYRQAPGKERELVADITYSGGSTYYADSVKGRFTISRDNAKNTVYLQMNSLKPEDTAVYYCNADPRWYHFEYGYWGQGTQVTVSS | high polyreactivity
16 | QVQLVESGGGLVQAGGSLRLSCAASGRIFSWYTMGWYRQAPGKERELVAAISWSGTSTYYADSVKGRFTISRDNAKNTVYLQMNSLKPEDTAVYYCARVLSPYYSTRYDHWGQGTQVTVSS | high polyreactivity
17 | QVQLVESGGGLVQAGGSLRLSCAASGRIFSYNAMGWDRQAPGKERELVSAISYGGGRTYYADSVKGRFTISRYNAKNTVYLQMNSLKPEDTAVYYCNRYGRQYDFFYWGQGTQVTGSS | high polyreactivity
18 | QVQLVESGGGLVQAGGSLRLSCAASGRIFSYNAMGWYRQAPGKERELVAASTFSGGGTYYADSVKGRYTISRDNAKNPVYLQMNSLKPEDTAVYYCNNLSYGYSTYGYWGQGTQVTVSS | low polyreactivity
19 | QVQLVESGGGLVQAGGSLRLSCAASGRIFSYYAMGWYRKAPGKERELVAAITSAGGTNYAVSVKGRFTISRDNAKITVYLQMNSLKPEDTAVYYCAADSSVLQNYYRYRYPYVTYNYWGQGTQVTVSS | low polyreactivity
20 | QVQLVESGGGLVQAGGSLRLSCAASGRIFSYYAMGWYRQAPGKERELVAAISRGGTTNYADSVKGRFTISRDNAKNTVYLQMNSLKPEDTAVYYCNRDFHLIHLSSARLDYWGQGTQVTVSS | low polyreactivity
21 | QVQLVESGGGLVQAGGSLRLSCAASGRIFSYYAMGWYRQAPGKERELVASISRSGGSTYYADSVKGRFTISRDNAKNTVYLQMNSLKPEDTAVYYCAAYKYVRSYPYDYWGQGTQVTVSS | low polyreactivity
22 | QVQLVESGGGLVQAGGSLRLSCAASGRIFSYYAMGWYRQAPRKERELVAGINWRGGRTYYADTVKGRFTISRDNAKITGYLQMNSLKPEETAVYYCAGDHPETPYDYWGQGTQVTVSS | high polyreactivity

Row | Sequence | polyreactivity (PSR sort gate)
23 | QVQLVESGGGLVQAGGSLRLSCAASGRIFTAYAMGWYRQAPGKERELVAAISSGDSTYYADSVKGRFTISRDNAKNTVYLQMNSLKPEDTAVYYCAAEGYLWGQSYNGLNYDSWGQGTQVTVSS | low polyreactivity
24 | QVQLVESGGGLVQAGGSLRLSCAASGRIFTDNAMGWYRQEPGKERELVAAIRGSGSSTYYADSVKGRFTISRDNAKNTVYLQMNSLKPEDTAVYYCAARRAVYRGNYWGQGTQVTVSS | high polyreactivity
25 | QVQLVESGGGLVQAGGSLRLSCAASGRIFTFNAMGWYRQAPGKERELVAAINSGGSRTYYADSVKGRFTISRDNAKNTVYLQMNSLKPEDTAVYYCAAGYSGWVRSSSPFYYWGQGTQVTVSS | high polyreactivity
26 | QVQLVESGGGLVQAGGSLRLSCAASGRIFTFNAMGWYRQAPGKERELVAAIRRGGGRTYYADSVKGRFTISRDNAKNTVYLQMNSLKPEDTAVYYCAAPFYRQSLIEYDYWGQGTQVTVSS | high polyreactivity
27 | QVQLVESGGGLVQAGGSLRLSCAASGRIFTFYAMGWSRQAPGKERELVAVITTGTSTTYADSVKGRFTISRDNAKNTVYLQMNSLKPEDTAVYYCAVDSWSRVQGWLAHNYDYWGQGTQVTVSS | low polyreactivity
28 | QVQLVESGGGLVQAGGSLRLSCAASGRIFTGNARGWYRQAPGKERELVAGISTSGGSTYYADSVKGRFTISRDNAKNTVYLQMTSLTPEDTAVYYCAAAYVHYVYKYDYWGQGTQVTVSS | high polyreactivity
29 | QVQLVESGGGLVQAGGSLRLSCAASGRIFTGYAMGWYRQAPGKERELVAAISRGGSTNYADSVKGRFTISRDNAMNTVYLQMNSLKAEDTSVYYCACGVHWDRGDYWGQGAQVTVSS | low polyreactivity
30 | QVQLVESGGGLVQAGGSLRLSCAASGRIFTGYAMGWYRQAPGKERELVAAITASGGNTYYADSVKGRFTISRDNAKNTVYLQMNSLKPEDTAVYYCAAGWYDQPDDYTSAYGVTKYGYWGQGTQVTVSS | low polyreactivity
31 | QVQLVESGGGLVQAGGSLRLSCAASGRIFTGYAMGWYRQAPGKERELVAVISSSTDRTYSADSVKGRFTISRDNAKNTVYFQMNSLKPEDTAVYYCAARPYRHKSRRYDYWGHGTQVTVSS | high polyreactivity
32 | QVQLVESGGGLVQAGGSLRLSCAASGRIFTGYAMGWYRQAPGTERELVAAISDGGSTNYADSVKGRFTISRDNAKNTVYLQMNSLKPEDTAVYYCAADGHSSDKYDYWGQGTQVTVSS | low polyreactivity
33 | QVQLVESGGGLVQAGGSLRLSCAASGRIFTHNAMGWYRQAPGKERELVAAISYSGVSTYYADSVKGRFTISRDNAKNTVYLQMNSLKPEDTAVYYCARDRWKWHYGYDYWGQGTQVTVSS | low polyreactivity
34 | QVQLVESGGGLVQAGGSLRLSCAASGRIFTHNAMGWYRQAPGKERELVAAITWTGGSTYADSVKGRFTISRDNAKKTVYLQMNSLKPEDTAVYYCNARAHRYYLYDVQFGRGHSGGYWGQGTQVTVSS | low polyreactivity
35 | QVQLVESGGGLVQAGGSLRLSCAASGRIFTHNSMGWYRQAPGKERELVAAISYSGVSTYYADSVKGRFTISRDTAKNTVFLQMNSLKPEDTAVYYCNAVWEYSGKSDYWGQGTQVSVSS | low polyreactivity
36 | QVQLVESGGGLVQAGGSLRLSCAASGRIFTINAMGWYRQAPGKERELVAAISWSGVRTYYADSVKGRFTISRDNAKNTVYLQMNSLKPEDTAVYYCAKRRQYQRSYNYWGQGTQVTVSS | low polyreactivity
37 | QVQLVESGGGLVQAGGSLRLSCAASGRIFTINAMGWYRQAPGKERELVAVITRGGSTKYADSVKGRFTISRDNAKNTVYLQMNSLKPEDTAVYYCAARVRAGHGKNGYWGQGTQVTVSS | high polyreactivity
38 | QVQLVESGGGLVQAGGSLRLSCAASGRIFTKYAMGWYRQAPGKDRELVAAISYRGGSTYYADSVKGRFTISRDNAQNTVYLQMNSLKPEDTAVYYCATSWTPNYFVTSDYWGQGTQVTVSS | high polyreactivity
39 | QVQLVESGGGLVQAGGSLRLSCAASGRIFTKYAMGWYRQAPGKERELVATITRNGGSTYYADSVKGRFTISRDNAKNTVYLQMNSLKPEDTAVYYCAADKRYKLDYWGQGTQVTVSS | high polyreactivity
40 | QVQLVESGGGLVQAGGSLRLSCAASGRIFTLYAMGWYRQAPGKERELVAGISRSGGSTYYADSVKGRFTISRDNAKNTVYLQMNSLKPEDTAVYYCNAVPIYYAWRRNKPFDYWGQGTQVTVSS | low polyreactivity
41 | QVQLVESGGGLVQAGGSLRLSCAASGRIFTNNAMGWYRPAPGKERELVAAISRSGGRTYYADSVKGRFTISRDNAKNTVYLQMNSLKPEDTAVYYCAAVHLYYGYNSPFTMDYWGQGTQVTVSS | high polyreactivity
42 | QVQLVESGGGLVQAGGSLRLSCAASGRIFTPYAMGWYRQAPGKERELVATISRGTSTSYADSVKGRFTISRDNAKNTVYLQMNSLKPEDTAVYYCAALGPRTTFRYTSYYYWGQGTQVTVSS | high polyreactivity
43 | QVQLVESGGGLVQAGGSLRLSCAASGRIFTPYAMGWYRQAPGKERELVAVIRDGSTYYADSVKGRFTISRDNAKNTVYIQMNSLKPEDTAVYYCRYDIWVWWSGAYDYWGQGTQVTVSS | low polyreactivity
